Test results reported in the supplement of paper PMC10724198.
± gives the standard deviation of the averaged measurements.

The sequences below were run on Saccharomyces cerevisiae (assay: protein stability index of tFT-peptide fusion (C-terminal peptide) (PSI (0-1 scale)); higher = more stable (slower turnover)). Conditions: genetic background: cdc34-1; temperature: 37 C.
Experimental: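 MPS profiling in S. cerevisiae of the tFT-X12 degron library: putative degron peptides plus stable controls, 12 aa, fused to the C-terminus of a sfGFP-mCherry timer. Cells are FACS-sorted into 8 mCherry/sfGFP bins and deep-sequenced. PSI runs from 0 (unstable) to 1 (stable). Backgrounds are wild type, das1Δ and doa10Δ at 30 °C, and wild type, das1Δ, cdc34-1 and cdc53-1 at 37 °C; 2-3 technical replicates each.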
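Also: PSI is a weighted mean of sequencing reads over stability bins, variants kept only with over 10 reads, mCherry proximal and sfGFP distal, peptide attached via GGGS linker.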

Row | Sequence | protein stability index
1 | WFIFTITSVAGL | 0.0307 ± 0.009
2 | WFLRLVGAVFAL | 0.539 ± 0.012
3 | WFVLYAEVMGFW | 0.205 ± 0.041
4 | WGRAADRRRRLG | 0.633 ± 0.054
5 | WGRENLTRVKLE | 0.70486 ± 0.00049
6 | WILIGVRFSCFG | 0.109 ± 0.0085
7 | WISDRCPSVLCY | 0.0407 ± 0.0022
8 | WLPFFPLSLRGV | 0.321 ± 0.012
9 | WLWFVGCLAAPL | 0.63 ± 0.032
10 | WQGLSGSPILVI | 0.197 ± 0.012
11 | WQILVRLIDFYT | 0.453 ± 0.011
12 | WSSWFLWVIFRL | 0.176 ± 0.011
13 | WSWCLDVVCFTS | 0.498 ± 0.036
14 | WVGWVVVLGCVG | 0.373 ± 0.027
15 | WVRIIIKLRASL | 0.444 ± 0.011
16 | WVSFFILYCVYR | 0.274 ± 0.016
17 | WWADRLVGVCIV | 0.55 ± 0.034
18 | WYYTWKQLVMIV | 0.0845 ± 0.01

Row | Sequence | protein stability index
19 | YARFWYSKAFIC | 0.455 ± 0.048
20 | YCILGSYRLCVG | 0.337 ± 0.037
21 | YCSIQIQLVYGI | 0.341 ± 0.0037
22 | YFFVCYFSLLVF | 0.0832 ± 0.019
23 | YFYIRLGIAYMM | 0.421 ± 0.037
24 | YILRLMMEGICL | 0.497 ± 0.012
25 | YLFFVCLHLKAG | 0.233 ± 0.03
26 | YLRVRRPGSALV | 0.7087 ± 0.0013
27 | YNKIRNNEKKMT | 0.664 ± 0.084
28 | YPSCPINFICLC | 0.618 ± 0.0088
29 | YRNVLLVLNYWS | 0.447 ± 0.076
30 | YSIHYLRFFSLF | 0.4734 ± 0.00049
31 | YSMLGKLVRLVT | 0.553 ± 0.05
32 | YVCLVWHRNFFS | 0.617 ± 0.014
33 | YVSSFSLVVLLS | 0.425 ± 0.0077
34 | YVVCFFFKLFYF | 0.271 ± 0.012
35 | YVVYLQVCWMRS | 0.072 ± 0.025

Same assay, conditions: genetic background: cdc53-1; temperature: 37 C

Row | Sequence | protein stability index
36 | WFIFTITSVAGL | 0.0301 ± 0.0014
37 | WFLRLVGAVFAL | 0.624 ± 0.039
38 | WFVLYAEVMGFW | 0.325 ± 0.043
39 | WGRAADRRRRLG | 0.731 ± 0.039
40 | WGRENLTRVKLE | 0.769 ± 0.0032
41 | WILIGVRFSCFG | 0.233 ± 0.069
42 | WISDRCPSVLCY | 0.0838 ± 0.0009
43 | WLPFFPLSLRGV | 0.317 ± 0.011
44 | WLWFVGCLAAPL | 0.662 ± 0.066
45 | WQGLSGSPILVI | 0.248 ± 0.015
46 | WQILVRLIDFYT | 0.446 ± 0.023
47 | WSSWFLWVIFRL | 0.173 ± 0.023
48 | WSWCLDVVCFTS | 0.547 ± 0.027
49 | WVGWVVVLGCVG | 0.42 ± 0.012
50 | WVRIIIKLRASL | 0.4476 ± 0.0035
51 | WVSFFILYCVYR | 0.345 ± 0.024
52 | WWADRLVGVCIV | 0.539 ± 0.026
53 | WYYTWKQLVMIV | 0.148 ± 0.0062

Row | Sequence | protein stability index
54 | YARFWYSKAFIC | 0.555 ± 0.011
55 | YCILGSYRLCVG | 0.434 ± 0.073
56 | YCSIQIQLVYGI | 0.4103 ± 0.0034
57 | YFFVCYFSLLVF | 0.139 ± 0.025
58 | YFYIRLGIAYMM | 0.511 ± 0.056
59 | YILRLMMEGICL | 0.545 ± 0.036
60 | YLFFVCLHLKAG | 0.335 ± 0.018
61 | YLRVRRPGSALV | 0.769 ± 0.028
62 | YNKIRNNEKKMT | 0.696 ± 0.026
63 | YPSCPINFICLC | 0.6992 ± 0.0053
64 | YRNVLLVLNYWS | 0.368 ± 0.029
65 | YSIHYLRFFSLF | 0.6669 ± 0.0066
66 | YSMLGKLVRLVT | 0.662 ± 0.02
67 | YVCLVWHRNFFS | 0.704 ± 0.019
68 | YVSSFSLVVLLS | 0.478 ± 0.024
69 | YVVCFFFKLFYF | 0.364 ± 0.024
70 | YVVYLQVCWMRS | 0.206 ± 0.076

Same assay, conditions: genetic background: das1 deletion; temperature: 30 C

Row | Sequence | protein stability index
71 | WFIFTITSVAGL | 0.0273 ± 0.0031
72 | WFLRLVGAVFAL | 0.528 ± 0.016
73 | WFVLYAEVMGFW | 0.241 ± 0.037
74 | WGRAADRRRRLG | 0.628 ± 0.011
75 | WGRENLTRVKLE | 0.618 ± 0.049
76 | WILIGVRFSCFG | 0.189 ± 0.034
77 | WISDRCPSVLCY | 0.185 ± 0.025
78 | WLPFFPLSLRGV | 0.412 ± 0.027
79 | WLWFVGCLAAPL | 0.529 ± 0.024
80 | WQGLSGSPILVI | 0.247 ± 0.037
81 | WQILVRLIDFYT | 0.345 ± 0.034
82 | WSSWFLWVIFRL | 0.34 ± 0.035
83 | WSWCLDVVCFTS | 0.45 ± 0.021
84 | WVGWVVVLGCVG | 0.29 ± 0.026
85 | WVRIIIKLRASL | 0.34 ± 0.021
86 | WVSFFILYCVYR | 0.253 ± 0.04
87 | WWADRLVGVCIV | 0.439 ± 0.024
88 | WYYTWKQLVMIV | 0.106 ± 0.023

Row | Sequence | protein stability index
89 | YARFWYSKAFIC | 0.581 ± 0.033
90 | YCILGSYRLCVG | 0.259 ± 0.033
91 | YCSIQIQLVYGI | 0.302 ± 0.025
92 | YFFVCYFSLLVF | 0.14 ± 0.032
93 | YFYIRLGIAYMM | 0.436 ± 0.026
94 | YILRLMMEGICL | 0.416 ± 0.033
95 | YLFFVCLHLKAG | 0.227 ± 0.031
96 | YLRVRRPGSALV | 0.63 ± 0.022
97 | YNKIRNNEKKMT | 0.674 ± 0.073
98 | YPSCPINFICLC | 0.585 ± 0.017
99 | YRNVLLVLNYWS | 0.428 ± 0.031
100 | YSIHYLRFFSLF | 0.6143 ± 0.0048
101 | YSMLGKLVRLVT | 0.512 ± 0.025
102 | YVCLVWHRNFFS | 0.605 ± 0.011
103 | YVSSFSLVVLLS | 0.377 ± 0.033
104 | YVVCFFFKLFYF | 0.299 ± 0.025
105 | YVVYLQVCWMRS | 0.134 ± 0.019

Same assay, conditions: genetic background: das1 deletion; temperature: 37 C

Row | Sequence | protein stability index
106 | WFIFTITSVAGL | 0.0442 ± 0.015
107 | WFLRLVGAVFAL | 0.621 ± 0.018
108 | WFVLYAEVMGFW | 0.491 ± 0.09
109 | WGRAADRRRRLG | 0.7658 ± 0.0054
110 | WGRENLTRVKLE | 0.725 ± 0.0082
111 | WILIGVRFSCFG | 0.339 ± 0.015
112 | WISDRCPSVLCY | 0.206 ± 0.011
113 | WLPFFPLSLRGV | 0.5374 ± 0.0038
114 | WLWFVGCLAAPL | 0.6316 ± 0.001
115 | WQGLSGSPILVI | 0.3829 ± 0.0012
116 | WQILVRLIDFYT | 0.5107 ± 0.0039
117 | WSSWFLWVIFRL | 0.433 ± 0.056
118 | WSWCLDVVCFTS | 0.563 ± 0.019
119 | WVGWVVVLGCVG | 0.47 ± 0.013
120 | WVRIIIKLRASL | 0.41 ± 0.0083
121 | WVSFFILYCVYR | 0.445 ± 0.017
122 | WWADRLVGVCIV | 0.587 ± 0.0076
123 | WYYTWKQLVMIV | 0.186 ± 0.0072

Row | Sequence | protein stability index
124 | YARFWYSKAFIC | 0.694 ± 0.025
125 | YCILGSYRLCVG | 0.447 ± 0.018
126 | YCSIQIQLVYGI | 0.441 ± 0.0063
127 | YFFVCYFSLLVF | 0.231 ± 0.012
128 | YFYIRLGIAYMM | 0.503 ± 0.019
129 | YILRLMMEGICL | 0.48 ± 0.019
130 | YLFFVCLHLKAG | 0.417 ± 0.013
131 | YLRVRRPGSALV | 0.7643 ± 0.0014
132 | YNKIRNNEKKMT | 0.7121 ± 0.0016
133 | YPSCPINFICLC | 0.685 ± 0.01
134 | YRNVLLVLNYWS | 0.544 ± 0.0087
135 | YSIHYLRFFSLF | 0.726 ± 0.014
136 | YSMLGKLVRLVT | 0.63036 ± 0.00022
137 | YVCLVWHRNFFS | 0.73 ± 0.048
138 | YVSSFSLVVLLS | 0.506 ± 0.0069
139 | YVVCFFFKLFYF | 0.4172 ± 0.0025
140 | YVVYLQVCWMRS | 0.23 ± 0.0061

Same assay, conditions: genetic background: doa10 deletion; temperature: 30 C

Row | Sequence | protein stability index
141 | WFIFTITSVAGL | 0.0226 ± 0.0015
142 | WFLRLVGAVFAL | 0.46 ± 0.0085
143 | WFVLYAEVMGFW | 0.207 ± 0.029
144 | WGRAADRRRRLG | 0.152 ± 0.0034
145 | WGRENLTRVKLE | 0.207 ± 0.015
146 | WILIGVRFSCFG | 0.159 ± 0.013
147 | WISDRCPSVLCY | 0.143 ± 0.011
148 | WLPFFPLSLRGV | 0.63 ± 0.0096
149 | WLWFVGCLAAPL | 0.523 ± 0.021
150 | WQGLSGSPILVI | 0.206 ± 0.0061
151 | WQILVRLIDFYT | 0.311 ± 0.0072
152 | WSSWFLWVIFRL | 0.459 ± 0.0077
153 | WSWCLDVVCFTS | 0.446 ± 0.011
154 | WVGWVVVLGCVG | 0.25152 ± 0.00025
155 | WVRIIIKLRASL | 0.274 ± 0.0048
156 | WVSFFILYCVYR | 0.23 ± 0.0055
157 | WWADRLVGVCIV | 0.38961 ± 2.3e-05
158 | WYYTWKQLVMIV | 0.0276 ± 0.0037

Row | Sequence | protein stability index
159 | YARFWYSKAFIC | 0.12 ± 0.023
160 | YCILGSYRLCVG | 0.2321 ± 0.00024
161 | YCSIQIQLVYGI | 0.301 ± 0.0082
162 | YFFVCYFSLLVF | 0.0967 ± 0.0036
163 | YFYIRLGIAYMM | 0.197 ± 0.013
164 | YILRLMMEGICL | 0.422 ± 0.038
165 | YLFFVCLHLKAG | 0.174 ± 0.0063
166 | YLRVRRPGSALV | 0.629 ± 0.035
167 | YNKIRNNEKKMT | 0.1897 ± 0.0018
168 | YPSCPINFICLC | 0.29 ± 0.0056
169 | YRNVLLVLNYWS | 0.518 ± 0.0072
170 | YSIHYLRFFSLF | 0.0685 ± 0.011
171 | YSMLGKLVRLVT | 0.164 ± 0.004
172 | YVCLVWHRNFFS | 0.14 ± 0.0063
173 | YVSSFSLVVLLS | 0.108 ± 0.015
174 | YVVCFFFKLFYF | 0.256 ± 0.0065
175 | YVVYLQVCWMRS | 0.0911 ± 0.019

Same assay, conditions: genetic background: wild type; temperature: 30 C

Row | Sequence | protein stability index
176 | WFIFTITSVAGL | 0.0205 ± 0.0016
177 | WFLRLVGAVFAL | 0.485 ± 0.025
178 | WFVLYAEVMGFW | 0.231 ± 0.042
179 | WGRAADRRRRLG | 0.207 ± 0.013
180 | WGRENLTRVKLE | 0.2 ± 0.017
181 | WILIGVRFSCFG | 0.165 ± 0.021
